We go through two molecules from patent US20190184035, “BCL11A HOMING ENDONUCLEASE VARIANTS, COMPOSITIONS, AND METHODS OF USE” (bluebird bio, Inc., published 2019).

The test system of series [1] is CCR5 megaTAL (Artificial). Briefly: cell_activity. The settings on record: human CD34+ cells; full megaTAL site not given, HE site given.
The target of series [2] is T1, BCL11A.B4.A3 I-OnuI homing endonuclease variant (mammalian expression) (Ophiostoma novo-ulmi).
T1 chain: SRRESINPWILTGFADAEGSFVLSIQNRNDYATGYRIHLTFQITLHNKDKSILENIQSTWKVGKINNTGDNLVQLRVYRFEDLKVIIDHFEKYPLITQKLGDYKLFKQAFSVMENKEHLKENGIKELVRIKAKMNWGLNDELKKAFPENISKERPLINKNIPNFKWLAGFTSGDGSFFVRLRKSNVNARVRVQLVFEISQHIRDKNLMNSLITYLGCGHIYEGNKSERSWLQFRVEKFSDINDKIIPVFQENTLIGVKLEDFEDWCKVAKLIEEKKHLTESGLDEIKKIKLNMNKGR
Briefly: cell_activity; HEK 293T chromosomal mCherry reporter. To be noted: tags: mammalian expression plasmid. The procedure:
The activity of reprogrammed I-OnuI HEs that target the GATA-1 motif in the BCL11A gene was measured using a chromosomally integrated fluorescent reporter system (Certo et. al., 2011). Fully reprogrammed I-OnuI HEs that bind and cleave the BCL11A target sequence were cloned into mammalian expression plasmids and then individually transfected into a HEK 293T […] cell line that was reprogrammed to contain the BCL11A target sequence upstream of an out-of-frame gene encoding the fluorescent mCherry protein. Cleavage of the embedded target site by the HE and the subsequent accumulation of small insertions or deletions, caused by DNA repair via the non-homologous end joining (NHEJ) pathway, results in approximately one out of three repaired loci placing the fluorescent reporter gene back “in-frame”. mCherry fluorescence is therefore a readout of endonuclease activity at the chromosomally embedded target sequence. […] FIG. 4A.
A secondary I-OnuI variant library was generated by performing random mutagenesis one of the reprogrammed I-OnuI HEs that targets the BCL11A target site, identified in the initial reporter screen (BCL11.A.B4, SEQ ID NO: 6). In addition, display-based flow sorting was performed under more stringent cleavage conditions (pH adjusted to 7.2) in an effort to isolate variants with improved catalytic efficiency. FIG. 4B. […]

The target of series [3] is T2, BCL11A.B4.A3 I-OnuI homing endonuclease variant (Ophiostoma novo-ulmi).
T2 chain: T1 chain
Briefly: flow; yeast surface display equilibrium binding titration. The text has this: The DNA binding affinity and cleavage specificity of the I-OnuI variant BCL11A.B4.A3 was characterized. A plasmid encoding the BCL11A.B4.A3 variant identified during reprogramming (SEQ ID NO: 34) was transformed into S. cerevisiae for surface display.

In series [1], “CTTCCAGGAATTCTTTGGCCTG (double strand) [CCR5 HE target site]” displayed an activity of 10 % indels.

B1: BCL11A HE target site (dsDNA)
DNA 1: CAGTTGCTTTTATCACAGGCTC
DNA 2: GAGCCTGTGATAAAAGCAACTG
B1 displayed an activity in series [2] of about 3 fold vs BCL11A.B4. This molecule showed a Kd in series [3] of about 0.5 nM.

The Kd is the concentration at which binding is half-saturated. Read a high Kd as a looser complex.
